Source: article PMC3012076

How the values were obtained:
[1] = molecular target: Lig A10 (10th tandem Big repeat of LigA) (L. interrogans serovar Pomona); assay: SEC; Superose 12 10/300 GL, 25 mM HEPES pH 7.0, 50 mM KCl, with and without 3 mM CaCl2; column calibrated with molecular mass markers; self-association, monomer to dimer
[2] = molecular target: LigBCen2 (L. interrogans serovar Pomona); assay: SEC; Superose 12 10/300 GL, 50 mM Tris pH 7.0, 50 mM KCl, with and without 3 mM CaCl2; column calibrated with molecular mass markers; self-association, monomer to dimer
[3] = molecular target: Lig A9 (9th tandem Big repeat of LigA) (L. interrogans serovar Pomona); assay: SEC; Superose 12 10/300 GL, 25 mM HEPES pH 7.0, 50 mM KCl, with and without 3 mM CaCl2; column calibrated with molecular mass markers; self-association, monomer to dimer

“Lig A10 (10th tandem Big repeat of LigA) (domain or fragment)” showed a stoichiometry N [1] of 2.

Work on LigBCen2 (domain or fragment) yielded a stoichiometry N [2] of 2.

With “Lig A9 (9th tandem Big repeat of LigA) (domain or fragment)” the stoichiometry N [3] was 2.
